Results: US20250066456A1 (NOVAVAX, published 2025)
Where two headings read alike, the source gives them in different places.

Assays:
[1] = target: T1, BV2438 (recombinant CoV S glycoprotein, Beta) (SARS-CoV-2, UniProt P0DTC2 14-1273); test: ELISA, plate coated with rS, serial dilution of the mAb, anti-mouse HRP, A450
[2] = target: Delta Plus CoV S glycoprotein (recombinant) (Severe acute respiratory syndrome …, UniProt P0DTC2 14-1273)
[3] = target: BV2589 (recombinant CoV S glycoprotein, BQ.1.1) (SARS-CoV-2, UniProt P0DTC2 14-1273); test: ELISA on coated rS
[4] = target: BV2425 (recombinant CoV S glycoprotein, Alpha) (SARS-CoV-2, UniProt P0DTC2 14-1273); test: ELISA, plate coated with rS, serial dilution of the mAb, anti-mouse HRP, A450
[5] = target: BV2465 (recombinant CoV S glycoprotein, Delta) (SARS-CoV-2, UniProt P0DTC2 14-1273); test: as above
[6] = target: T1, BV2438 (recombinant CoV S glycoprotein, …); test: as above; remark: listed apart in the source
[7] = target: BV2509 (recombinant CoV S glycoprotein, BA.1) (SARS-CoV-2, UniProt P0DTC2 14-1273); test: as above
[8] = target: BV2443 (recombinant CoV S glycoprotein, Gamma) (SARS-CoV-2, UniProt P0DTC2 14-1273); test: as above

Binder	EC50 [1]	EC50 [2]	Kd (BV2457 (rS India))	koff (BV2457 (rS India))	kon (BV2457 (rS India))	EC50 [3]	EC50 [4]	EC50 [5]	EC50 [6]	EC50 [7]	EC50 [8]
425.6 (antibody, V domains shown) VH: VQLKQSGPSLVQPSQSLSITCTVSGFSLTSYGIHWVRQSPGKGLEWLGVIWRGGSTDYNAAFMSRLTITKDNSKSQVFFKMNSLQADDTAIYYCATHTEGDDVDYWGQGTSVTVSS VL: QIVLTQSPAIMSVSPGEKVTMTCSASSTMSFMYWYQQKPGSSPRLLIYDTSNLASGVPVRFSGSGSGTSYSLTISRVEAEDAATYYCQQWNTYPLTFGAGTKLELKR	0.011 µg/mL	0.0098 µg/mL	< 1 pM	1.88e-07 s⁻¹	117000 M⁻¹ s⁻¹	–	–	–	–	–	–
322.3 (antibody, V domains shown) VH: RVQLQQSGPELVKPGASVTISCKASGYIFTSDYIHWVKQRPGQGPEWIGWIYPGNINTKYNEKFKGKATLTADKSSSTAYMQLSSLTSEDSAVYFCARDDGNLYYYAMDYWGQGTSVTVSS VL: NIVLTQSPASLAVSLGQRATISCRASESVDSYGSSFMHWYQQKPGQPPKLLIYLASNLESGVPARFSGSGSRTDFTLTIDPVEADDAATYYCQQNNEDPRTFGGGTKLEIK	–	–	–	–	–	0.077 µg/mL	0.085 µg/mL	0.082 µg/mL	0.084 µg/mL	0.144 µg/mL	0.084 µg/mL
